Where “and” joins values, the source holds several entries; their conditions need not be identical. Equal values may be shown once.
Legend:
[1] = target: PpsR_(Q-PAS1), PpsR variant comprising the glutamine-rich linker (Q-linker) and the PAS1 domain (Rhodobacter sphaeroides) (UniProt Q9S301); assay: crystal structure; PpsR_(Q-PAS1), 8 mg/ml, 100 mM sodium cacodylate pH 6.5, 1.9% PEG 3000, 200 mM MgCl2, 293 K; one chain in the asymmetric unit, dimer by a crystallographic dyad; 1.65 Å
[2] = target: PpsR_(N-Q-PAS1), PpsR variant comprising the N-terminal domain, the Q-linker and the PAS1 domain (Rhodobacter sphaeroides) (UniProt Q9S301); assay: SEC-MALS; Superdex 200 10/300 GL, buffer D (10 mM CHES pH 9.0, 150 mM NaCl, 5% glycerol), 400 µl of a 20 µM protein solution loaded, 0.5 ml/min
[3] = target: PpsR_(N-Q-PAS1), PpsR variant comprising the N-terminal domain, the Q-linker and the PAS1 domain (Rhodobacter sphaeroides) (UniProt Q9S301); assay: crystal structure; PpsR_(N-Q-PAS1), 10 mg/ml, 1.6 M ammonium sulfate, 100 mM MES pH 6.5, 10 mM L-cysteine, 4% 1,4-dioxane, 293 K; dimer in the asymmetric unit; 2.2 Å
[4] = target: PpsR_(N-Q-PAS1), PpsR variant comprising the N-terminal domain, the Q-linker and the PAS1 domain (Rhodobacter sphaeroides) (UniProt Q9S301); assay: MST; dimer to monomers, KD based on the total monomer concentration; Monolith NT.115, unlabelled protein titrated (1:2 dilution series) into NT-647-labelled protein (10 nM for PpsR_(N-Q-PAS1)), buffer D, three experiments averaged
[5] = target: the molecule itself; assay: MST; tetramer to dimers, KD based on the total dimer concentration; Monolith NT.115, unlabelled protein titrated (1:2 dilution series) into 12.5 nM NT-647-labelled protein, buffer D, three experiments averaged
[6] = target: the molecule itself; assay: crystal structure; PpsR_(ΔHTH), 30 mg/ml, 1 M ammonium sulfate, 100 mM Tris-HCl pH 8.5, 6% xylitol, 12% glycerol, 1% dioxane, 293 K; four chains in the asymmetric unit, octamer by a crystallographic twofold axis; 2.8 Å
[7] = target: the molecule itself; assay: SEC-MALS; Superdex 200 10/300 GL, buffer D (10 mM CHES pH 9.0, 150 mM NaCl, 5% glycerol), 400 µl of a 20 µM protein solution loaded, 0.5 ml/min

For “PpsR_(Q-PAS1), PpsR variant comprising the glutamine-rich linker (Q-linker) and the PAS1 domain (from UniProt Q9S301 123-257) (domain or fragment)”, the stoichiometry N [1] was 2.

For “PpsR_(N-Q-PAS1), PpsR variant comprising the N-terminal domain, the Q-linker and the PAS1 domain (from UniProt Q9S301 1-257) (domain or fragment)”, the stoichiometry N [2] was 2, the stoichiometry N [3] was 2 and the Kd [4] was 250 nM.

B1: PpsR_(full), full-length transcription factor PpsR (photopigment suppression) from Rhodobacter sphaeroides (natural protein, UniProt Q9S301 1-464, looked up)
chain: MLAGGSLPSLAPDLVRDLIATAADISLLVSQEGVVREVMANPHHPSFGQLSEWEGRPLEEVLTAESVAKFRLRSEGLEPGRGSVAVELNHIDPRSFEFPIRYILHRLPADRSILMLGRDLRPIAEVQQQLVAAQLAMERDYETQREMETRYRVVLDVSRDPMVLVSMSTGRIVDLNSAAGLLLGGVRQDLLGAAIAQEFEGRRRGEFMETMTNLAATESAAPVEVLARRSQKRLLVVPRVFRAAGERLLLCQIDPADATQPVGDELSENLARLYHEGVDGIVFSDADGTIRGANEAFLNMTDSSSLAAIRGRSIADFLARGSVDLRVLIDSVRRTGQLRLYATRLTTDFAGQIAAEISATWLDDRERPLLVLVVRDTSRADTMRRPVPATGVIDEPARNVMELVGNSTLKDIVAETTDVVEKMCIETALELTRNNRVAAAEMLSLSRQSLYVKLRKFGLLNKDE
notes: PpsR from Rhodobacter sphaeroides, UniProt Q9S301, full-length protein; gene synthesized with codon optimization for E. coli, cloned in pETM-11; In MST one copy was randomly labelled at amine positions with NT-647 red fluorescent dye (about one label per monomer); In solution a dimer-tetramer equilibrium; source: E. coli BL21 (DE3), purified (Ni-NTA, TEV cleavage, HiTrap Heparin, Superdex 200); …
Molecule B1 has a Kd [5] of 900 ± 300 nM.

B2: PpsR_(ΔHTH), triple PAS domain construct of PpsR (N-domain, Q-linker, PAS1, PAS2) lacking the C-terminal HTH motif (domain or fragment, Rhodobacter sphaeroides, UniProt Q9S301 1-379, looked up)
chain: MLAGGSLPSLAPDLVRDLIATAADISLLVSQEGVVREVMANPHHPSFGQLSEWEGRPLEEVLTAESVAKFRLRSEGLEPGRGSVAVELNHIDPRSFEFPIRYILHRLPADRSILMLGRDLRPIAEVQQQLVAAQLAMERDYETQREMETRYRVVLDVSRDPMVLVSMSTGRIVDLNSAAGLLLGGVRQDLLGAAIAQEFEGRRRGEFMETMTNLAATESAAPVEVLARRSQKRLLVVPRVFRAAGERLLLCQIDPADATQPVGDELSENLARLYHEGVDGIVFSDADGTIRGANEAFLNMTDSSSLAAIRGRSIADFLARGSVDLRVLIDSVRRTGQLRLYATRLTTDFAGQIAAEISATWLDDRERPLLVLVVRDTSR
notes: PpsR from Rhodobacter sphaeroides, UniProt Q9S301; the model ends at 378 with the C-terminal arginine disordered; The forward primer 1_fw introduces ATG GGA before the first codon of PpsR; In MST one copy was randomly labelled at amines with NT-647; A selenomethionine-substituted form was also crystallized for phasing; source: E. coli BL21 (DE3), purified (Ni-NTA, TEV cleavage, Superdex 200); …
B2 was tested, and the “stoichiometry N” value [6] was 4 and 8, the Kd [5] was 900 ± 200 nM and the “stoichiometry N” value [7] was 2.

— article PMC3949515, “Multi-PAS domain-mediated protein oligomerization of PpsR from Rhodobacter sphaeroides” (Acta Crystallographica Section D: Biological Crystallography, 2014)
